Experimental data as given in the nanobody polyreactivity screen of Harvey et al. (2022).

Test: yeast display, Sf9 membrane polyspecificity reagent, FACS + sequencing; frameworks hold sequencing errors
Summary of the method: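 Using colony PCR, genes from sorted yeast display clones were amplified, then sequenced on MiSeq at 2 × 250 and filtered by CDR length. The clones had been stained with 10% biotinylated, detergent-solubilized Sf9 membrane reagent for 1 hour at 4 °C and sorted by FACS into low and high (top ~1%) gates on anti-HA and streptavidin fluorescence. Polyreactivity labels come from the gate of origin.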

Row | Sequence | polyreactivity (PSR sort gate)
1 | QVQLVESGGGLVQAGGSLRLSCAASGFTFVDYAMGWYRQAPGKERELVAAITVSGDSTYYADSVKGRFTISRDNAKNTVYLQMNSLKPEDTAVYYCAADPGYYDGGYWGQGTQVTVSS | low polyreactivity
2 | QVQLVESGGGLVQAGGSLRLSCAASGFTFVFNARAWYRQAPGKERELVATITNGGSTYYADSVKGRFTISRDNAKNTVYLQMNSLKPEDTAVYYCAAVRKQCSGFDYWGQGTQVTVSS | high polyreactivity
3 | QVQLVESGGGLVQAGGSLRLSCAASGFTFVFYAMGWYRQAPGKERELVAAISSRGGSTYYADSVKGRFTISRDNAKNTVDLQMNSLKPEDTAVYYCNVVSTYWTTYEEYYWGQGTQVTVSS | high polyreactivity
4 | QVQLVESGGGLVQAGGSLRLSCAASGFTFVGNAMGWYRQAPGKARELVAAIRWTDGSTYYADSVKGRFTISRDNAKNTVYLHMNSLKPEDTAVYYCAKDYRDYARAGDYNVKQADDYWGQGTQVTVSS | low polyreactivity
5 | QVQLVESGGGLVQAGGSLRLSCAASGFTFVGNAMGWYRQAPGKERELVAAITSGGSTYYADSVKGRFTISRDNAKNTVYLQMNSLKPEDTAVYYCATGGRGGRRYEYWGQGTQVTVSS | low polyreactivity
6 | QVQLVESGGGLVQAGGSLRLSCAASGFTFVGYAMGWYRQEPGKERELVAAISTRGGSTYYADSVKGRFTISRDNAKNTDYLQMNSLKPEDTAVYYCNARGAKRGLLSYYWGQGTQVTVSS | high polyreactivity
7 | QVQLVESGGGLVQAGGSLRLSCAASGFTFVHNAMGWYRQAHGKERELVAAISSSGGRTYYADSVKGRFTISRDNAKNTVYLQMNSLKPEDTAVYYCATVNRYGPSYGYWGQGTQVTVSS | high polyreactivity
8 | QVQLVESGGGLVQAGGSLRLSCAASGFTFVHYAMGWYRQAPGKETELVAAISSGGSTYYADSVKGRFTISRDNAKNTVYLQLNSLKAEDTAVYYCAALKYSRGVRYGYWGQVTQVTVSS | high polyreactivity
9 | QVQLVESGGGLVQAGGSLRLSCAASGFTFVINDMGWYRQAPGKERELVADITSGGDTNYADSVKGRFTISRDNAKNTVYFQMNSLKPEDTAVYYCAADIYPDWIYLLFGYWGQGTQVTVSS | low polyreactivity
10 | QVQLVESGGGLVQAGGSLRLSCAASGFTFVNYAMGWYRQAPGKERELVAAIRRSGSRTYYADSVKGRCTISRDIAKYTVYLQMNSLKPDDTPVYYCAAVWYRLYGYWGQGTQVTVSS | low polyreactivity
11 | QVQLVESGGGLVQAGGSLRLSCAASGFTFVNYVMGWYRQAHGKERELVAAISRSGGSTYYADSVKGRFTISRDNAKNTVYLQMNSLKPEDTAVYYCAARWFYRAGFNYWGQGTQVTVSS | high polyreactivity
12 | QVQLVESGGGLVQAGGSLRLSCAASGFTFVQYAMGWYRQAPGKERELVATISKSGGITYYADSVKGRFTISRDNAKNTVYLQMNSLKPEDTAVYYCAAAWYYSSRGFHATWGHDYWGQGTQVTVSS | low polyreactivity
13 | QVQLVESGGGLVQAGGSLRLSCAASGFTFVRNAMGWYRQAPGKERELVAAISGSGGRTYYADSVKGRFTISRDNAKNTVYLQMNSLKPEDTAVYDCNTASAYEYEYWGQGTQVTVSS | high polyreactivity
14 | QVQLVESGGGLVQAGGSLRLSCAASGFTFVRNTLGWYRQAPGKERELVATITFSGGSTYYADSVKGRFTISRDNAKNTVYLQMNTLKPEDTAVYYCAAEDWDDGYDYWGQGTQVTVSS | high polyreactivity
15 | QVQLVESGGGLVQAGGSLRLSCAASGFTFVRNTMGWYRQAPGKERELVAAISRSGGSTYYADSVKGRFTISRDNAKNTVYLQMNSLKPEDTAVYYCNAYRYVHYDWGQGTQVTVSS | high polyreactivity
16 | QVQLVESGGGLVQAGGSLRLSCAASGFTFVRNVMGWYRQAPGKERELVAAINTGGTTDYADSVKGRFTISRDNAKNTVYLQMNSLKPEDTAVYYCNADYDSQYHYLLRYDYWGQGTQVTVSS | low polyreactivity
17 | QVQLVESGGGLVQAGGSLRLSCAASGFTFVRYAIGWYRQAPGKERELVSVISRSGGSTNYADSVKGRFTISRDNAKNTVYLQMNSLKPEDTAVYYCAASLQYRRVVKGGDYWGQGTQVTVSS | high polyreactivity
18 | QVQLVESGGGLVQAGGSLRLSCAASGFTFVRYAMGWYRQAPGKERELVAAISSGGSTNYADSVKGRFTISRDNAKNTVYLQMNSLKPEDTAVYYCNAVSRKVYPGPMDYWGQGTQVTVSS | high polyreactivity
19 | QVQLVESGGGLVQAGGSLRLSCAASGFTFVRYTMGWYRQAPGKERELVAAINRSGGNTYYADSVKGRFTISRDNAKKTVYLQMNSLKPEDTAVYYCAAGYYVQVSLKDYYWGQGTQVTVSS | high polyreactivity
20 | QVQLVESGGGLVQAGGSLRLSCAASGFTFVSNAMGWYRQAPGKERELVAAISGSGGSTYYADSVKGRFTISRDNAKNTVYLQMNSLKPEDTAVYYCAKGSRSYVRKMDYWGQGTQVTVSS | low polyreactivity
21 | QVQLVESGGGLVQAGGSLRLSCAASGFTFVSNDMGWYRQAPGKERELVAAIRYRGGDTYYADSVKGRFTISRDNAKNTVYLQMNSLKPEDTAVYYCAVDVATYTAGWYYHGYDYWGQGTQVTVSS | low polyreactivity

Row | Sequence | polyreactivity (PSR sort gate)
22 | QVQLVESGGGLVQAGGSLRLSCAASGFTFVSYAMGWYRQAPGKERELVAAITSNGGSTYYADSVKGRFTISRDNAKNTVYLQMNSLKPEDTAVYYCAAAGFWHGYFGYGYWGQGTQVTVSS | low polyreactivity
23 | QVQLVESGGGLVQAGGSLRLSCAASGFTFVSYAMGWYRQAPGKERELVASITWTGGSTYYADSVKGRFTISRDYAKNTVYLQMNSLKPEDTAVYYCAAQQFYSGILGRYYWGQGTQVTVSS | low polyreactivity
24 | QVQLVESGGGLVQAGGSLRLSCAASGFTFVVYAMGWYSQAPGKERELVARITWSGGSTYYADSVKGRFTISRDNAKNTVYLQMNSLKPEDTAVYDCNTRRYPYDGIEHDYWGQGTQVTVSS | low polyreactivity
25 | QVQLVESGGGLVQAGGSLRLSCAASGFTFVYNAMGWYRQAPGKERELVAAITFSGGSTYYADSVNGRFTISRDNAKNTVYLQMNSLKPEDTAVYYCATDYPGVFVLRRSHPYDYWGQGTQVTVSS | low polyreactivity
26 | QVQLVESGGGLVQAGGSLRLSCAASGFTFVYNAMGWYRQAPGKERELVASITQSGDITYYADSVKGRFTISRDNAKNTVYLQMNSLKPEDTAVYYCNKFQGTGDRFDSWGQGTQVTVSS | low polyreactivity
27 | QVQLVESGGGLVQAGGSLRLSCAASGFTFVYYGMGWYRQAPGKERELVADISSGGNTYYADSVKGRFTISRDNAKNTVYLQMNSLKPEETAVYYCNKDARDEEGSSRTYDYWGQGTQVTVSS | low polyreactivity
28 | QVQLVESGGGLVQAGGSLRLSCAASGFTFVYYVMGWYRQAPGKERELVAAINAGGGSTYYADSVKGRFTISRDNAKNTVYLQMISLKPEDTSVYYCNARVRVRLGRNWSSYYYWGQGTQVTVSS | high polyreactivity
29 | QVQLVESGGGLVQAGGSLRLSCAASGFTFVYYVMGWYRQAPGKERELVAAINAGGGSTYYADSVKGRFTISRDNAKNTVYLQMNSLKPEDTAVYYCNARVRVRLGRNWSSYDYWGQGSQVTVSS | high polyreactivity
30 | QVQLVESGGGLVQAGGSLRLSCAASGFTFWDYAMGWYRQAPGKERELVAAISDNDGSTDYADSVKGRFTISRDNAKNTVYLQMNSLKPEDTAVYYCNAEIEMPSKEGDYWGQGTQVTVSS | low polyreactivity
31 | QVQLVESGGGLVQAGGSLRLSCAASGFTFWDYAMGWYRQAPGKERELVAAISWSGGSTYYADSVKGRFTISRDNAKNTVYLQMNSLKPEDTAVYYCNAVHYSHHGYDYWGQGTQVTVSS | low polyreactivity
32 | QVQLVESGGGLVQAGGSLRLSCAASGFTFWGNAMGWSRQAPVKERELVAAISRSGGRTYYADSVKGRFTISRDNAKNTVYLQMNSLKPEDTAVYYCDAGSSHHFDYEGGYWGQGTQVTVSS | low polyreactivity
33 | QVQLVESGGGLVQAGGSLRLSCAASGFTFWKYTMGWYRQAPGKERELVATISSSSGSTTYADSVKGRFTISRDNAKNTVYLQMYSLKPEDTAVYYCNVDDPFYSGVVEFDYWGQGTQVTVSS | low polyreactivity
34 | QVQLVESGGGLVQAGGSLRLSCAASGFTFWLYAMGWYRQAPGKERELVATISWSGGSTYYADSVKGRFTISRDNAKNTVYLQMNSLKPEDTAVYYCAARLNYGNKYDYWGQGTQVTVSS | high polyreactivity
35 | QVQLVESGGGLVQAGGSLRLSCAASGFTFWPNAMGWYRQAPGKERELVAAINWSGGSTYYADSVKGRFTISRDNAKNSVYLQMNSLKPEDTAVYYCNADPYLLEHDYWGQGTQVSVSS | low polyreactivity
36 | QVQLVESGGGLVQAGGSLRLSCAASGFTFWPNAMGWYRQAPGKERELVAAINWSGGSTYYADSVKGRFTISRDNAKNTVFLQLNSLKPEDTAVYYCAAVSYDWYVGYEFWGQGTQVTVSS | low polyreactivity
37 | QVQLVESGGGLVQAGGSLRLSCAASGFTFWQYAMGWYRQAPGKERELVAAITRDVGSTYYADSVKGRFTISRDNAKNTVYLQMNSLKPEDTAVYYCAKLFGGTYYEYDYWGQGTHVTVSS | low polyreactivity
38 | QVQLVESGGGLVQAGGSLRLSCAASGFTFWRNAMGLYRQAPGKERELDAAISWRGGSTYYADCVKGRFTISRDNAKNTVYFQMNSLKPEDTAVYYCNVVYFRYYSGEFDYWGQGTQVTVSS | high polyreactivity
39 | QVQLVESGGGLVQAGGSLRLSCAASGFTFWRNTMGSYRQARGKEREFVAAIDWSGGSTTYADSVKGRFTISRDNAKNTVYLQMNSLKKEDTAVYYCAAAERRRHYWWGQESDYWGQGTQVTVSS | low polyreactivity
40 | QVQLVESGGGLVQAGGSLRLSCAASGFTFWRYAMGWYRQAPGKDRELVAAISSSGGSTYYADSVKGRFTISRDNAKNTVYLQMNSLKPEVTAVYYCATSVRFVRGWGYSYRGYDYWGQGTQVTVSS | high polyreactivity
41 | QVQLVESGGGLVQAGGSLRLSCAASGFTFWSYAMGWYRQAPGKERELVAAISRNGGRTYYADSVKGRFTISRDNAKNTVYVQMNSLKPEDTAVYYCATRARNRYTEMDYWGQGTQVTVSS | high polyreactivity
